System: MS2 coat protein
Experiment: apparent KD of MS2 coat protein; designed switch direction (-1 OFF switch, 1 ON switch): -1; higher = weaker reporter binding
Outline: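 RNA switches sharing common flanks were transcribed by stalled E. coli RNA polymerase on Illumina chips. A doubling series of SNAP-549-labelled MS2 coat protein, from 0.7 or 1.5 nM to 3 µM, was applied in Tris-HCl pH 7.5 buffer with KCl, MgCl2, BSA, DTT, tRNA and Tween-20. Each step lasted 0.8–1.5 h at the bottom of the series and 10–20 min at the top. Normalised cluster fluorescence was curve-fitted, giving apparent KD as the per-design median over clusters.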

[1] = input ligand: microRNA oligo, concentration not stated
[2] = Eterna round: R95, input ligand: FMN 200 uM
[3] = Eterna round: R95, input ligand: microRNA oligo, concentration not stated
[4] = Eterna round: R95, input ligand: none

Row | Sequence | apparent KD of MS2 coat protein (input ligand: FMN 200 uM) [nM] | apparent KD of MS2 coat protein (input ligand: none) [nM] | apparent KD of MS2 coat protein [1] [nM] | apparent KD of MS2 coat protein [2] [nM] | apparent KD of MS2 coat protein [3] [nM] | apparent KD of MS2 coat protein [4] [nM]
1 | UCUUACUGAGGAUAUACAUAGAUUUACAUGAGGAUCACCCAUGUUCCUCUAAGUAUAUAUGUAGAAGGCAGAAGAA [Mat - Exclusion 5 - JL Mod - D43] (Eterna round: R97, puzzle: Exclusion 5) | 139 | 370 |  |  |  | 
2 | UACCUGAGGCAAAGCUUUAGGCUUACAUGAGGAUCACCCAUGUAGGAUAUGGUAGGCUUUGCUUACCAGAAGGACAUGGAAAUU [Mat - Exclusion NG 3 - Mod of JL - D22] (Eterna round: R96, puzzle: Exclusion NG 3) | 64.3 | 19.1 | 18 |  |  | 
3 | AAGUACCGUCACGAUAGUGAUGGUACAACAAGCAUGUAAACAUGAGGAUCACCCAUGUCCUCAAAUGCUCGUCUUAU [Sensor 3 - 65] (puzzle: Sensor v3, turn-off variant 2) |  |  |  | 556 | 1090 | 689
4 | AUUUUAUAACAAGGAUAUACUAAACAUGAGGAUCACCCAUGUAAUAUUAUGAGUGAGAGAGAGAAGUAGAAGGUGUAUUAUUUU [JMF solution 1] (Eterna round: R96, puzzle: Exclusion NG 2) |  |  | 97.4 |  |  | 
5 | UUUUCGUGAGGAUAUCAGUAGUAAAUAAAUAAAAUUACUACUGAGAAGGCACAUGAGGAUCACCCAUGUUCCUU [salish99_ex3_r3_094] (puzzle: Exclusion 4) |  |  |  |  | 13.6 | 
6 | GGCCUUCCGCAAGCUUUUUACAUGAGGAUCACCCAUGUGGUUUUUAGUCUUAUGUUCGGGCCCGUGUGGGCUCGGGC [-25.5, -46.5, A 13%] (Eterna round: R97, puzzle: Sensor, turn-off variant 1) | 28.4 | 29 |  |  |  | 
7 | CCUAUGUGAGGAUAUCACUGGUCUUUUCAUUAGAUGAUCAGUGAGAAGGCACAUGAGGAUCACCCAUGUCAGUG [Ex4 - 3 - 53] (Eterna round: R96, puzzle: Exclusion 4) | 48 | 110 | 59.7 |  |  | 
8 | AUGUGCUGCUAAGGAUAUGUGAACUGUUUCCGAAUAGAAGGUAGCUAUACAUGAGGAUCACCCAUGUACGUGAACCGAGUAAAA [Eternabot solution 20] (Eterna round: R96, puzzle: Exclusion NG 1) | 20 | 24.6 | 19 |  |  | 
9 | CAGUACAGAGGAUAUACAUGAGGAUCACCCAUGUGUUUCAGCAUCGAAAGAUGCGAAUGUAGAAGGCUGUACUG [jl-ex3-4.26 salish99 mod] (Eterna round: R97, puzzle: Exclusion 3) | 313 | 26.5 |  |  |  | 
10 | AGAGUGCUGCGAGGAUAUACAUGAGGAUCACCCAUGUAAAUGUGUGAGGCUUUGCCUCACACAAUGUAGAAGGCGCAGUACUCU [Mat - Exclusion NG 2 - Mod of JL - D1] (Eterna round: R96, puzzle: Exclusion NG 2) | 17.8 | 15.6 | 8.58 |  |  | 
11 | UUAUAAAGUGUGAGGAUAUGCUGGUCCAUAGAUCAGCAGAAGGCACAUGAGGAUCACCCAUGUAAUAUAUUUUU [Mat - Exclusion 4 - JL Mod - D43] (puzzle: Brourd's mod of Exclusion 4) |  |  |  |  | 27.2 | 
12 | AGCUAGUCAGGAUAUUCUAAUAAUUACAUGAGGAUCACCCAUGUGAAUAGACAAGGGUGUGAAGAAGGGACUAGCG [Omei Ex5 A5] (Eterna round: R97, puzzle: Exclusion 5) | 58.3 | 366 |  |  |  | 
13 | AGAGCACGAGGAUAUACAAGGAUAACUCGCAGAUCGUCAGUACAUGAGGAUCACCCAUGUAGAAGGUGUUAGCA [Eternabot (Original) Solution 6] (Eterna round: R97, puzzle: Exclusion 2) | 41.2 | 58.9 |  |  |  | 
14 | GUCGAGUGAGGAUAUGGUGAGUAGUGCCAGAGCGCUGCUCACCAGAAGGCACAUGAGGAUCACCCAUGUAUGUC [Mat - Exclusion 4 - Mod of JL - D10] (puzzle: Exclusion 4) |  |  |  |  | 12.3 | 
15 | GAUUAUGCGAGCUUUAGGGACAUGAGGAUCACCCAUGUUCGUCUUAUUAGUCUGAAUGCACUGACAUACCUAAAUCU [JMF 75] (puzzle: Sensor v3, turn-off variant 1) |  |  |  | 16.2 | 17.7 | 16.1
16 | UUGUACCGGUGAGGAUAUUUUUAAUAGAGCUUUAUGAUAUACAUGAGGAUCACCCAUGUUACGUUGAAGAAGGCAUCGGAUUAU [JL JR Sub091 mod 5] (Eterna round: R96, puzzle: Exclusion NG 2) | 19.3 | 19.8 | 15.5 |  |  | 
17 | GUUCUGACAGGAUAUACAUGAGGAUCACCCAUGUGCCCUUAGAGAUGCAAAGCAUCUCGUAGAAGGGUCUGAAC [Omei Ex3 Model Bachelor's Dilema v28] (Eterna round: R97, puzzle: Exclusion 3) | 38.5 | 31.6 |  |  |  | 

Row | Sequence | apparent KD of MS2 coat protein (input ligand: FMN 200 uM) [nM] | apparent KD of MS2 coat protein (input ligand: none) [nM] | apparent KD of MS2 coat protein [1] [nM] | apparent KD of MS2 coat protein [2] [nM] | apparent KD of MS2 coat protein [3] [nM] | apparent KD of MS2 coat protein [4] [nM]
18 | CUGAGGUAGCGGUCCUAUGACAUGAGGAUCACCCAUGUGCCUUGCUACAAGCUUUUUGCUCGUUUUAUGAUUCUCGG [JL Atriat mod 10] (puzzle: Sensor v3, turn-off variant 1) |  |  |  | 72.8 | 64.6 | 83.5
19 | AAAUCUCACGUAAGGAUAUCCUGGGCAACGUCCACGGAGAAGGUACAUGAGGAUCACCCAUGUGCUCGCUAUAC [BmEX4 C.1] (Eterna round: R97, puzzle: Brourd's mod of Exclusion 4) | 25.2 | 19.7 |  |  |  | 
20 | GAAAAGGUAGGAUAUACGAAAAAAAAGGGUAGAAAAGAAACACAUGAGGAUCACCCAUGUAGAAGGACCAAAAG [salish99_ex2_r3_016] (puzzle: Exclusion 2) |  |  |  | 78 | 27.8 | 21.5
21 | AGAUAGUGGUGAGGAUAUCAGAAUAGAAAGAAAUGAGAAGGCACACAUGAGGAUCACCCAUGUGAGUUCUUGAGAUUACAUGGU [Prohibition 41 - Jieux - Exclusion NG 1] (Eterna round: R96, puzzle: Exclusion NG 1) |  |  | 14.4 |  |  | 
22 | AGAGUACUGCGAGGAUAUACAUGAGGAUCACCCAUGUGGUGGUGUGAGGCUUUGCCUCACACCAUGUAGAAGGCGCAGUACUCA [Mat - Exclusion NG 2 - Mod of JL - D19] (Eterna round: R96, puzzle: Exclusion NG 2) | 257 | 35.3 | 26.8 |  |  | 
23 | AUAAAUCAUGUAGGAUAUGCGUGGAGAAGCUAUGCAGAAGGACAUGAGGAUCACCCAUGUGCUUCCGUCUGCGUACAGACGGAA [Mat - Exclusion NG 1 - Mod of JL - D36] (Eterna round: R96, puzzle: Exclusion NG 1) | 38 | 131 | 89.2 |  |  | 
24 | CAGCCUUGAGUUAGGAUAUGCGAUCGUGUAGACGAGCAGAAGGGACAUGAGGAUCACCCAUGUGAAAUAAUUAA [Begeti] (puzzle: Brourd's mod of Exclusion 4) |  |  |  | 18.3 | 13.2 | 13.4
25 | GGUGCUGGCGCGUCGGUGUUGGUGCAAUAAGCUUGUGAAACAUGAGGAUCACCCAUGUCCUCAUGGGCUCGUCUUGU [salish99_TOv2_r2_089] (puzzle: Sensor v3, turn-off variant 2) |  |  |  | 123 | 13 | 138
26 | AAAGACAUGAGGAUCACCCAUGUACUGGUGGAGCUCGUGAGGCAGGAUAUCGCGUGCGAAGCUCGCGAGAAGGGCCAGGAAUUU [Cexela] (Eterna round: R96, puzzle: Exclusion NG 3) | 416 | 109 | 98.2 |  |  | 
27 | CUUACACAUGAGGAUCACCCAUGUGAGGAUAUGCGUACGUUGUCCGUAGGCGACGUGCGCAGAAGGCGCUUGGU [JL-ex1-3.19 Eli mod] (puzzle: Exclusion 1) |  |  |  |  | 55.3 | 
28 | UUUUACCUAGGAUAUACAUUUUUUUUAUUAUUUUCAUUAUAACAUGAGGAUCACCCAUGUAGAAGGAGGAUUUU [My Design] (puzzle: Exclusion 2) |  |  |  |  | 34.7 | 
29 | GUUUGACAUGAGGAUCACCCAUGUGAGGAUAUCGGCUGGUACGUGUUGGCUGGCAUCUCGAGAAGGCACAUAGG [Exclusion 1 V58] (puzzle: Exclusion 1) |  |  |  |  | 109 | 
30 | AAUAUGUGAGGAUAUUAGUUGUACGUCAAUAGACGUAUAAGUGAGAAGGCACAUGAGGAUCACCCAUGUUCCUG [Omei Ex4 Mod of Mat's R95 mod of Omei v3] (Eterna round: R97, puzzle: Exclusion 4) | 98.2 | 23.7 |  |  |  | 
31 | GAUCUGCAGCAGGAUAUGCUCUCGGAAACGAGCGCAGAAGGGCUGACAUGAGGAUCACCCAUGUAAUAAUGGCC [EX6 A.24] (Eterna round: R97, puzzle: Exclusion 6) | 89.7 | 44.2 |  |  |  | 
32 | AUCGUGUUAGGAUAUACACGACGCUGGGUAGCGGGCGGAGGGUAGAAGGGACAUGAGGAUCACCCAUGUUCGGG [Somalaesar] (Eterna round: R97, puzzle: Exclusion 4) | 41.2 | 46.6 |  |  |  | 
33 | AGUACUAACACGAAAGUGUUAGUACAACAAGCUUGUGAAACAUGAGGAUCACCCAUGUCCUCAUAAGCUCGUCUUAU [salish99_TOv2_r3_042] (puzzle: Sensor v3, turn-off variant 2) |  |  |  | 13.7 | 463 | 11.9
34 | UAACUACAUGAGGAUCACCCAUGUCAGGAUAUGCCGUUAAAUUAACAUCAACAUACGGGUAGAAGGGACAGCGU [1st #4] (Eterna round: R97, puzzle: Exclusion 1) | 30 | 29.2 |  |  |  | 
